From patent publication US8927280B2, “Compositions and methods for promoting the generation of definitive endoderm” (President and Fellows of Harvard College, priority 2009, dated 2015)

Experiments:
[1] = system: endoderm derived from Pdx1-GFP mouse ES cells; assay: Differentiation of induced endoderm into Pdx1+ pancreatic progenitors; type: cell-based
Description: (§1) Mouse ES cells were routinely cultured on irradiated CF-1 MEF feeder cells in DMEM (Gibco) media supplemented with 15% Fetal Bovine Serum (HyClone FBS, Invitrogen), 2 mM L-glutamine (L-Glu, Gibco), 1.1 mM 2-mercaptoethanol (Gibco), 1 mM nonessential amino acids (Gibco), 1× penicillin/streptomycin (P/S, Gibco) and 5×10^5 units LIF (Chemicon). Cells were passaged at the ratio of 1:6-1:12 every 2-3 days using 0.25% trypsin. To generate the starting population, mouse ES cells was cultured on MEF feeder cells until they reached 80-90% confluence. Prior to differentiation, ES cells were passaged onto gelatin coated plates for 30 min to remove MEFs. MEF depleted ES cells were seeded at 2500 cells per cm^2 on gelatinized plates. After overnight culture, cells were exposed to 25 ng/ml Wnt3a (R&D Systems)+50 ng/ml recombinant Activin A (R&D Systems) or 500 ng/ml Nodal (R&D Systems) in DMEM (Gibco) supplemented with 1×L-Glu and 0.2% FBS (Gibco) for 1 day, then Activin A or Nodal in the same media and cultured for 4-6 days to induce endoderm differentiation. For the chemical inductions, compounds IDE1 and IDE2 (provided by Stuart L. Schreiber) were added at 5 μM concentration in the differentiation media. For pancreatic progenitors induction, the cells were transferred to 50 ng/ml FGF10 (R&D Systems), 0.75 μM KAAD-cyclopamine (Calbiochem) and 2 μM RA (Sigma) or Indolactam V 330 nM (Axxora) in DMEM supplemented with 1×L-Glu, 1×PS, 1×B27 (Invitrogen) for 4 days. SHB431542 was purchased from Sigma. All stock compounds were made with either DMSO or PBS
(§2) Cells were fixed in 4% paraformaldehyde (Sigma) in PBS for 20 min at 4° C. followed by a wash with PBS. Cells were blocked with 10% donkey serum (Jackson Immunoresearch) in PBS/0.1% Triton X and incubated with primary antibodies overnight at 4° C. Secondary antibodies were incubated for 1 h at room temperature. The following antibodies and dilutions were used: goat anti-SOX17, (1:500 R&D systems); rabbit anti-PDX1 (1:200, Chemicon), rabbit anti-FoxA2 (1:500; Upstate), rabbit anti-Dab2 (1:200, Santa Cruz), rabbit anti-SPARC (1:200, Santa Cruz,), mouse anti-AFP (1:100, Sigma), anti-Gata6 (1:50, Santa Cruz Biotech), goat anti-HNF6 (1:200, Santa Cruz Biotech), rabbit anti-RFP/DsRed (1:300, MBL), rabbit anti-GFP (1:200, Molecular Probes). Secondary antibodies were: rhodamine Red-X-conjugated donkey anti-goat antibody, 1:200 (JIRL), Alexa-488-conjugated goat anti-mouse and Alexa-594-conjugated goat anti-rabbit antibodies (1:300, Molecular Probes). Nuclei were visualized by Hoechst 33342 (1:1000, Molecular Probes). Images were taken using an Olympus IX70 Microscope. For quantification images were analyzed for the frequency of SOX17+, FoxA2+ or Pdx1+ cells using Metamorph image analysis software (Molecular Devices) and at least 6 images per well were collected. Data were confirmed in four independent experiments.
Pancreatic progenitors appear in the pancreatic bud at E9.5 and are marked by the expression of the transcription factor Pdx1. […] Using Pdx1-GFP knock-in (Micallef et al., 2005) mouse ES cells the inventors induced definitive endoderm using either of the hit compounds and cultured cells in various conditions for additional six days.

Smad2 = assay: Western blot analysis of Smad2 phosphorylation in ES cell lysates; type: cell-based, mouse; settings: for phosphorylation of Smad2 by IDE1 or IDE2 in the presence of the ALK4/5/7 inhibitor: mouse ES cells, co-treatment; for phosphorylation of Smad2 / activation of the TGF-β pathway: ES cell lysates, after 24 hrs or longer
Description: Cells were lysed in 1×RIPA lysis buffer in the presence of protease inhibitor mixture (Roche)/1% phosphatase inhibitor mixture (Roche). Proteins were separated by 10% Tris-Glycine SDS/PAGE (Bio-rad) under denaturing conditions and transferred to a nitrocellulose membrane. After blocking with 5% skim milk in PBS/0.1% Triton X, the membrane was incubated with primary antibodies against phospho-Smad2 (1:1000, Cell Signaling) overnight at 4° C. The membrane was then washed, incubated with anti-mouse/rabbit peroxidase-conjugated affinity-purified secondary antibody (1:1000, Cell Signaling) at room temperature for 1 h, and developed by SuperSignal chemiluminescence (Pierce).

mouse ES cells = assay: Sox17 endoderm induction in mouse ES cell monolayer cultures; type: cell-based; settings: for percent of total cells Sox17/dsRed double positive: Sox17-dsRed mouse ES cells, day 6, low serum
Description: as §1, §2
Endoderm formation was monitored by Sox17 expression by either flow cytometry detection of Sox17/DsRed or immunofluorescence using anti-Sox17 antibodies. Cells labeled by antibody staining were quantified using Metamorph software ad percentage of total cell number (based on Hoechst 33342 nuclei staining). All conditions were tested in either tri- or quadruplicates.

[2] = system: human ES cells (HUES 4 and 8); assay: Sox17 endoderm induction in human ES cells; type: cell-based
Description: Human embryonic stem cell lines were cultured essentially as described {Cowan, 2004 #6}. Briefly, HUES4, HUES8 and HUES9 cells are routinely cultured on irradiated CF-1 MEF feeder cells in KnockOut DMEM (Gibco) supplemented with 10% KnockOut Serum Replacement (Gibco), 10% human plasma (Invitrogen), 2 mM L-glutamine (L-Glu, Gibco), 1.1 mM 2-mercaptoethanol (Gibco), 1 mM nonessential amino acids (Gibco), 1× penicillin/streptomycin (PS, Gibco) and 10 ng/ml bFGF (Invitrogen). Cells are split at the ratio of 1:10-1:12 every 4-5 days by using 1 mg/ml collagenase type IV. To induce endoderm formation, HUES cells was cultured on MEF feeder cells till 80-90% confluent, then treated with 100 ng/ml Activin A in advanced RPMI (Gibco) supplemented with 1×L-Glu and 0.2% FBS (Gibco), or with combination of 25 ng/ml Wnt3a (R&D systems)+100 ng/ml Activin A (R&D systems) or were exposed to compounds in the same media. At days 4 and 6 of culture cells were analysed for endodermal marker expression, Sox17.
as §2

Molecule: CC(C)[C@H]1C(=O)N[C@H](CO)Cc2c[nH]c3cccc(c23)N1C [Indolactam V, (2S,5S)-1,2,4,5,6,8-Hexahydro-5-(hydroxymethyl)-1-methyl-2-(1-methylethyl)-3H-pyrrolo[4,3,2-gh]-1,4-benzodiazonin-3-one]
- increase of Pdx1+ cells above control treatment at day 12 ([1]; IDE1 or IDE2 followed by ILV): 10 fold
- percent Pdx1-GFP expressing pancreatic progenitors at day 6 ([1]; IDE1 or IDE2 induced mouse endoderm, second step treatment): 51±7.4%
- yield of pancreatic progenitors compared to a growth factor based approach ([1]; applied to IDE1 or IDE2 derived endoderm): higher yields of pancreatic progenitors
- percent of total cells Pdx1+ at day 12 ([1]; cultures treated initially with IDE1 or IDE2 and followed by ILV): 50%
- increase in Pdx1+ cell number compared to known published protocols ([1]; two-step treatment): 4 fold
- percent of Pdx1+ cells also expressing other pancreatic progenitor markers, including HNF6 ([1]; two-step treatment): 92±5%
- increase in Pdx1+ cell number compared to the control DMSO treated ([1]; two-step treatment, Pdx1 antibody staining): 10 fold
- percent of cells positive with Pdx1 antibodies ([1]; two-step treatment: IDE1 and/or IDE2, then Indolactam V): 53±6.4%

Molecule: NC(=O)c1ccc(-c2nc(-c3ccc4c(c3)OCO4)c(-c3ccccn3)[nH]2)cc1 [SB43125, reference compound]
- phosphorylation of Smad2 by IDE1 or IDE2 in the presence of the ALK4/5/7 inhibitor (Smad2): strongly attenuated
- phosphorylation of Smad2 by IDE1 or IDE2 in the presence of the ALK4/5/7 inhibitor (Smad2; listed as SB431542): significantly attenuated
- induction of Sox17 protein under co-treatment of IDE1 or IDE2 with the ALK4/5/7 inhibitor (mouse ES cells; mouse ES cells): 5.6±1.3%

B1: Nodal: TGF-β family growth factor, protein inducer of endoderm (protein, UniProt Q96S42 238-347, looked up)
Nodal homolog: HHLPDRSQLCRKVKFQVDFNLIGWGSWIIYPKQYNAYRCEGECPNPVGEEFHPTNHAYIQSLLKRYQPHRVPSTCCAPVKTKPLSMLYVDNGRVLLDHHKDMIVEECGCL
- phosphorylation of Smad2 / activation of the TGF-β pathway (Smad2): high level
- percent of total cells Sox17/dsRed double positive (mouse ES cells): 45%
- percent of ES cells that form (definitive) endoderm, summary statement (mouse ES cells; mouse ES cells): about 45%

B2: Wnt3a: Wnt growth factor family member (protein, UniProt P56704 19-352, looked up)
Protein Wnt-3a: SYPIWWSLAVGPQYSSLGSQPILCASIPGLVPKQLRFCRNYVEIMPSVAEGIKIGIQECQHQFRGRRWNCTTVHDSLAIFGPVLDKATRESAFVHAIASAGVAFAVTRSCAEGTAAICGCSSRHQGSPGKGWKWGGCSEDIEFGGMVSREFADARENRPDARSAMNRHNNEAGRQAIASHMHLKCKCHGLSGSCEVKTCWWSQPDFRAIGDFLKDKYDSASEMVVEKHRESRGWVETLRPRYTYFKVPTERDLVYYEASPNFCEPNPETGSFGTRDRTCNVSSHGIDGCDLLCCGRGHNARAERRREKCRCVFHWCCYVSCQECTRVYDVHTCK
- synergy / combined effect on Sox17 induction (mouse ES cells; mouse ES cells, co-treatment): no significant effect

B3: Activin A: recombinant TGF-β family growth factor, protein inducer of endoderm (protein, UniProt P08476 311-426, looked up)
Inhibin beta A chain: GLECDGKVNICCKKQFFVSFKDIGWNDWIIAPSGYHANYCEGECPSHIAGTSGSSLSFHSTVINHYRMRGHSPFANLKSCCVPTKLRPMSMLYYDDGQNIIKKDIQNMIVEECGCS
- percent of cells expressing Pdx1 after FGF10, KAAD-cyclopamine and retinoic acid ([1]; label = inducer of the starting endoderm, mouse ES cells): 12.1±4%
- percent of cells expressing Sox17 ([2]; HUES cells, 4 days, IDE1 100 nM, IDE2 200 nM): 64±6.3%
- increase of Sox17 expression compared to the vehicle treatment ([2]; human ESC cultures, 6 days): 4 fold
- percent of total cells expressing Sox17 after 6 days ([2]; human ESC cultures, 6 days): 55-65%
- phosphorylation of Smad2 / activation of the TGF-β pathway (Smad2): high level
- percent of total cells Sox17/dsRed double positive (mouse ES cells): 45%
- percent of ES cells that form (definitive) endoderm, summary statement (mouse ES cells; mouse ES cells): about 45%
- % of Sox17+ cells compared to IDE1 or IDE2 at all tested time points (mouse ES cells; mouse ES cells, 14 days of treatment): significant but lower % of Sox17+ cells
- percentage of cells expressing Sox17 at day 2 of treatment (mouse ES cells; mouse ES cells, day 2): 13%
- percentage of cells expressing Sox17 at day 4 of treatment (mouse ES cells; mouse ES cells, day 4): 28%
